{"source": "the DeepSol protein solubility set"}
{"assay": "soluble on expression in E. coli; label from the status in PepcDB or PDB records"}
{"sequence": "MGSDKIHHHHHHMYDNDLWFATINLPYRQKLELLRIYKTSDEILYNFKNSELIQKYKFDIEKINYIKDEMKKSGMKIVFWNDDDYPKVLKNYDDMPYGLFYMGNIKKLNELNYNVAIVGSRRCTQYGKDITTIISREISINGIGIISGMARGIDTYAHKICLENNGYTCAVLGCGADVIYPKENKNLYCQIIRNGCIISQYKPNTKPLPYNFPIRNKIISGLSNLVLVTEADIKSGSIITASSALEQGKDVGAVPGSVFSKMSRGTNKLIQDGAHVIKDIDDVFGILNFQKINFKKIRNNSSYSSMPENQRQIYDLVSDKPIHVDDIKRCLNIDIQELYELLFEMQLKNKILCLSGSYYVRVNDCL", "soluble on expression in E. coli": "not soluble"}
{"sequence": "MDVGKLESFIVEKMAERKVPGISISIIKDGDVVYAKGFGYRNVEARLPSTPETIYGIGSITKSFTALAIMKLVEEGGLSLDDPVEKFVNIKLRPFGEPVTVHHLLTHSSGIPSLGYAEAFIDGMVGGDNWLPVSTPEETIAFARDMEKWAVAKPGERFFYLNTGYVLLGKIIEKVSGVSYEEYIKKKILEPLGMNRSYFFKEEVEKDKDVAMGYILDKEGRLVPQPFPYGITADGGLLSSVLDLAKYLKMYIERDESIVSKEYIEKMETSYIKVPWEIFGGEGYGYGLIIYPNFLGEKLVGHSGSVGMYTGYIGYIPEKKIGVAVLENSSGYPPSYIAMYALALLLGKNPEKELPFIYRERILKKVEGRYMGYKGTIKFEVKVDGDVVYLRALGRAFTYTIPLFPEVLEEDFIKCYTLSNGRKMYAEFYIKDNKVDLIFERYRLIKS", "soluble on expression in E. coli": "soluble"}
{"sequence": "MSVEKTCRYLSLFLVASLTGCGFHLRGSETSDGAGQVLFLEKAGSTRVGSRLPDAIRLTGAQLTRNMVDAKGVIRILKETDERRTMSLNLGGRGNLFDLYTRVRYEVTTPQGEIIIPPQEVEVKREYFNNQLSPIGQGEEESLLRSEMERELAETLVRRVLIEMSRNPGGKSLEHHHHHH", "soluble on expression in E. coli": "soluble"}
{"sequence": "MAKYTRDDILAQAKQLAKMIAETEEVDFFKRAEEKIHQNEKVRTLINELKSLQKQAVNLQHYGKHEALKQVEAKIDAIYEELSQIPIVSEFQQSQSDVNDLLQLVASTISNTVTDEILASTGGDVLRGETGAALRYNKHGGCH", "soluble on expression in E. coli": "not soluble"}
{"sequence": "MATKEFYFAIIGHCDQPIFEMDFPVGEKKTKESEGTRHLNHYIGHAALDIVDEHALTTSQMYLKMVDKFNEWYVSAFVTASRIRFIMLHTHRADEGIKQFFQEMYETYIKHAMNPFYEIDDVIESPAFEQKATLYGRKYLS", "soluble on expression in E. coli": "not soluble"}
{"sequence": "MRRVLFSCFCGLLWSSSGWAVDPLGTININLHGNVVDFSCTVNTADIDKTVDLGRWPTTQLLNAGDTTALVPFSLRLEGCPPGSVAILFTGTPASDTNLLALDDPAMAQTVAIELRNSDRSRLALGEASPTEEVDANGNVTLNFFANYRALASGVRPGVAKADAIFMINYN", "soluble on expression in E. coli": "not soluble"}
{"sequence": "MKRGDIAHGLRLSGFKSLFPFSLHWCHTASKSVNCTWHQHEDHLELQYASTVMRFDYVWLRDHCRSASCYNSKTHQRSLDTASVDLCIKPKTIRLDESTLFFTWPDGHVTRYDLDWLVKNSYEGQKQEVIQPRVLWNAKLYQDAQLPSVDFQGFLETKEGLKKFLQNFLLYGIAFVENVPPTQEHTEKLARRVSLIRETIYGRMWYFTSDFSRGDTAYTKLALDRHTDTTYFQEPCGIQVFHCLKHEGTGGRTLLVDGFYAAQQVLQRAPEEFDLLSQVPLKHEYIENVGQCHNHMIGVGPILNIYPWNKELYLIRYNNYDRAVINTVPYDVVRRWYAAHRTLTTELRRPENELWVKLKPGKVLFIDNWRVLHGRESFTGYRQLCGCYLTRDDVLNTARILGLHA", "soluble on expression in E. coli": "not soluble"}
{"sequence": "MISKRNTPQRRHAILALLSEQGEVSVDALAKRFSTSEVTIRKDLAAMESHGLLLRRYGGAVPMPQELIGEAAQPVSPYKQAIGRAAAARIREHARIIIDSGSTTAAMIPELGHKPGLVVMTNSLNVVNALRELEHEPVLLMTGGTWDPHSESFQGQVAEQVLRSYDFDQLFIGADGIDLERGTTTFNELLGLSRVMAEVAREVIVMAEADKVGRRIPNQELPWSSIHTLITDERLESSAREQITARGVTLICTPVEALEHHHHHH", "soluble on expression in E. coli": "not soluble"}
{"sequence": "MFKGDMNKKRAKALQKVKEAITLHGGQTILSTGITGDDARLAKAVCEAGVKLLEPNHPALALARGHKGVSNMHAAEQIRHEITNSQMAEAVHGVRNVVPDDIFITVGIAGGFTETLPVPLSEKEILEIARAGADGLHTHKSDWDDLQDIVNLAHQYGLTVDAYIGHPDDLHTFGIPARTPEEVASVAKRMQDIGVDMIGLMTGMSYEGVAAGDIPQMIKDRLRALVGAVDVPTLAEGGINLANAKAFKDTGVNILVVGTAIDNMVCNAAKEAVTPFIVH", "soluble on expression in E. coli": "soluble"}
{"sequence": "MHYCEPGWFELIRHRLAFFKDNAAPFKILFLADLHYSRFVPLSLISDAIALGIEQKPDLILLGGDYVLFDMSLNFSAFSDVLSPLAECAPTFACFGNHDRPVGTEKNHLIGETLKSAGITVLFNQATVIATPNRQFELVGTGDLWAGQCKPPPASEANLPRLVLAHNPDSKEVMRDEPWDLMLCGHTHGGQLRVPLVGEPFAPVEDKRYVAGLNAFGERHIYTTRGVGSLYGLRLNCRPEVTMLELVLEHHHHHH", "soluble on expression in E. coli": "not soluble"}
{"sequence": "QTVVTGKVIDSETSEPLIGVSVSTGQGASLRGVTTDMDGGFRFEVPAKSVLTFRCVGYATVTRSIGRGSQEDLGTILLDPQAIGLDEIQVIASVVPKDRMTPVPVSNIRVADIQAASLNVEFPELVKSTPSTYTTKGSGGFGDGRTNVRGFDTYNFGVLINGVPVNGMEDGKVYWSNWSGLMNQASTIQIQRGLGASKLGISSVGGTMNIITKTTDANTGGSAYVGMGNDGLHKESFSISTGMND", "soluble on expression in E. coli": "not soluble"}
{"sequence": "MTKLAVVGATGLVGTKMLETLNRKNIPFDELVLFSSARSAGQEVEFQEKTYTVQELTDARASEHFDYVLMSAGGGTSEHFAPLFEKAGAIVIDNSSQWRMAEDIDLIVPEVNEPTFTRGIIANPNCSTIQSVVPLKVLQDAYGLKRVAYTTYQAVSGSGMKGKKDLAEGVNGKAPEAYPHPIYNNVLPHIDVFLENGYTKEEQKMIDETRKILNAPDLKVTATCARVPVQDSHSVEIDVTLDKETTAEDIKALFDQDDRVVLVDNPENNEYPMAINSTNKDEVFVGRIRRDDSLENTFHVWCTSDNLLKGAALNAVQVLEQVMRLKGAN", "soluble on expression in E. coli": "soluble"}
{"sequence": "MRKIILASGSPRRKELLELAGVPFEIIVSEVEETIGAYSSPSDIVMSLALQKASAVAENNSDHIVLGADTIVTYESRILGKPSNKAEAKEMLQLLSGKTHEVYTGVAIIAKDKTVTFYERTEVTFWELTEEEIDAYVASKEPLDKAGSYGIQGKGSIFVQHIQGDYYSVVGLPISRLVRELKQFNIDVTHA", "soluble on expression in E. coli": "not soluble"}
{"sequence": "GMNAIRYTKRECKDEKKITEFLNKARTGFLGLSTNDQPYVIPLNFVWHNHAIYFHGASEGRKIKMIEANPEVCFTICEDLGTIVSPVPAHTDTAYMSVIIFGTIEPVSAIEEGTEAMQQMLDKYVPGYYHSPLAASHVEKYRSSLGSRTAIYKISCRERTAKVNEPIESLKFYPGRNVSVDKDSR", "soluble on expression in E. coli": "soluble"}
{"sequence": "RSLQLDKLVNEMTQHYENSVPEDLTVHVGDIVAAPLPTNGSWYRARVLGTLENGNLDLYFVDFGDNGDCPLKDLRALRSDFLSLPFQAIECSLARIA", "soluble on expression in E. coli": "soluble"}
{"sequence": "MGSDKIHHHHHHMDIENMKAFNKVAELKSISAAANELHHLQSNMSNKIKNIEKQFQTQLFFRHSNGVELTKEGEKIYQQFKKMILLWEETIDIINNEEETISIGITQSSLPMEFNTIIKEFYQQFPNKKLSIVSGSTSELIPKIANRELTIAYVAELEKENLFQDSQIISQTLSWDKLVFAGNTAGKSVQKILAEERLYVFSKQCYSYRALAALINDFNIPNVSISEINIPETLVEICNNELGVGIIPESIALNYHFLNYETLPTEYAALRKTLIYHADHTISNGEKWLIEKSKPAFKS", "soluble on expression in E. coli": "not soluble"}
{"sequence": "MAHHHHHHMDRLAGSFLSNGDVANASSLYNSLEKLNPTRYSRMARICRVLLNPQGVPLPHRHLDICEALLDPLVPPEVLLRDSAENVQKSFQRLAVCAHPDKNPSPSANEAFLRLTMMKDKALELLRNGVGRKCDGATEAPPGKAADSNGGKGKPKMQGSGPAVPTVAHRRRPLRPGVPLPAAATAVTSDINTAAAVSSKISQLRRTKITLNALKRKDIADDFEIFSATQRTTAVQSEVSHSDVGEDHLATTVPVMSTKERARCANRRRSQSSAPQEKTTTVPRASSPNSNPLLSSSLYYAMPVSPHKPLSPSPQTLEDPTGSVKSSGAGDRDASALYSPFIPTAAIPADSDAIRRQIDEACLRLREMRLQHTTVRLDLDLSFEAYERSKQPQ", "soluble on expression in E. coli": "not soluble"}
{"sequence": "MAIQLSKGQRIDLTKTNPGLTKAVIGLGWDTNKYSGGHDFDLDASAFLVDAHDNCVNDLDFVFYNNLEHPSGGVIHTGDNRTGEGDGDDEQIIVDFSKIPAHIEKIGITVTIHDAEARSQNFGQVSNAFVRVVDEETQNELLRFDLGEDFSIETAVVVCELYRHGGEWKFNAIGSGFSGGLAALCRNYGLQVLEHHHHHH", "soluble on expression in E. coli": "soluble"}
{"sequence": "MRSKRFEALAKRPVNQDGFVKEWIEEGFIAMESPNDPKPSIKIVNGAVTELDGKPVSDFDLIDHFIARYGINLNRAEEVMAMDSVKLANMLCDPNVKRSEIVPLTTAMTPAKIVEVVSHMNVVEMMMAMQKMRARRTPSQQAHVTNVKDNPVQIAADAAEGAWRGFDEQETTVAVARYAPFNAIALLVGSQVGRPGVLTQCSLEEATELKLGMLGHTCYAETISVYGTEPVFTDGDDTPWSKGFLASSYASRGLKMRFTSGSGSEVQMGYAEGKSMLYLEARCIYITKAAGVQGLQNGSVSCIGVPSAVPSGIRAVLAENLICSSLDLECASSNDQTFTHSDMRRTARLLMQFLPGTDFISSGYSAVPNYDNMFAGSNEDAEDFDDYNVIQRDLKVDGGLRPVREEDVIAIRNKAARALQAVFAGMGLPPITDEEVEAATYAHGSKDMPERNIVEDIKFAQEIINKNRNGLEVVKALAQGGFTDVAQDMLNIQKAKLTGDYLHTSAIIVGDGQVLSAVNDVNDYAGPATGYRLQGERWEEIKNIPGALDPNEID", "soluble on expression in E. coli": "soluble"}
{"sequence": "FTLRLNSTEMPMSDLIEVELLTGKQLLLVEPNMQAASVTQQILSQEGILVTYRSSLPENEEHYDYVLLNLAANQTYDEQSVAAWIEQAKRMAPSVIMGTPSTELALADQIMTEHQIQCLTKPLSRRKLLQS", "soluble on expression in E. coli": "not soluble"}
{"sequence": "MSLKVLKKEELVPTLYQLFSQAKEKVLVVSAWIRGSIFKELLSLLPENVQLEVIVRAGNLSDMDITDEAFFRETKKKGGRILLNPKLHSKFLIIDERYAVVGSSNITFMGLYPEGNVETNVLIEEKEKVKELLEFYENLKEESVDYTDVVGYAVSSRSPKEAEIVLLEDLKEQTYLGIQGEEFFLCRLSNVSGKKETREDALNRILSSEVWDWKVAALFAHLYERPEIKTGRLEILGEYEKERNLFKTPTKSVESGSLVKKLEPESEELKRILFKNHSGYDMKYPTYLGKLYNTEVKAYLDMDKVLGMHMAVLGTTGSGKTTFVKKILKNFKESEVIIFDIYGEYAQELGAKEVIVENVLMPISVEDVKDYLKEAGSTLEERSTEEKEFFSVFRRALKPDIEATELKEKSFKEIYEEAVKNLHSLHLKQDAQSVYEHLERTYSRGALEQQPKVLKEVVDFLNSEERVKVFNFKEVDITETKVNLTGLILKEIFIRAKKDRKPRLIVIEEAQNVAPERGTGDVPSGKENVAFVYAKKIAMEGRKLNLGLIAITQRPANLSKFILSQLNTQVIFKLITKNDLDAVSPFFEYSKEDIFRLLPFLKPGTAFVSGLAVPFSFLFQMEEIPYYEGHHHHHH", "soluble on expression in E. coli": "not soluble"}
{"sequence": "MTKLTIFYDGTCPLCAKEMKALRQHDHKQEINTVDIYSDAFSAYPQINPDRANTILHALDNQGNLLLGLDVTYRAWQLVGRGWLYAPLRWPLIRPVADWLYLRFAQNRYRISYWLTGTSRCNSGRCSRLEHHHHHH", "soluble on expression in E. coli": "soluble"}
